Assay results: patent US20030008334A1 (published 2003)

What was measured:
[1] = target: MBP-afadin-PDZ (MBP-fusion protein of the PDZ domain of afadin) (UniProt O35889); test: affinity chromatography on MBP-afadin-PDZ amylose beads, eluate on SDS-PAGE
[2] = target: the molecule itself; test: immunofluorescence microscopy of co-cultured nectin-1α-L and nectin-2α-L cells
Procedure: Chemical cross-linking was done according to the method described in references (Blood 92: 4602-4611, 1998; J. Biol. Chem., 275: 613-618, 2000). Immunoprecipitation was performed according to the method described in references (J. Cell Biol., 145: 539-549, 1999; J. Biol. Chem., 275: 613-618, 2000). Immunofluorescence microscopy of cultured cells was done according to the method described in references (J. Cell Biol., 139: 517-528, J. Cell Biol., 145: 539-549, 1999; J. Biol. Chem., 275: 613-618, 2000). Protein concentrations were determined with bovine serum albumin as a control, according to the method described in a reference (Anal. Biochem., 72: 248-254, 1976). SDS-PAGE was done as described (Nature, 227: 680-685, 1970).
When nectin-1α-L cells were co-cultured with nectin-2α-L cells, nectin-1α and nectin-2α were localized in the cell-cell contact sites of the respective L cells (FIG. 5, A1-A3). However, neither nectin-1α or nectin-2α was detected in the contact sites of the two types of the L cells. In contrast, when nectin-3α-L cells were co-cultured with nectin-1α-L cells, nectin-3α and nectin-1α coexisted in the cell-cell contact site of the two types of the L cells (FIG. 5, B1-B3). The same result was obtained in co-culture of nectin-3α-L cells and nectin-2α-L cells (FIG. 5, C1-C3).

GST-nectin-3α-CP (GST-fusion protein of the cytoplasmic region of nectin-3α), sequence (Q9JLB9 433-549 limits assumed): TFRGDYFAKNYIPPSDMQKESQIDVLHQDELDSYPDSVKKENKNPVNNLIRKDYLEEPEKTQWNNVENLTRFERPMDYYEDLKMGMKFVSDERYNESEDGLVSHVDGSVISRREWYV

Molecule	stoichiometry of binding (nectin-3α:afadin ratio) [1]	binding result [2]
GST-nectin-3α-CP (GST-fusion protein of the cytoplasmic region of nectin-3α) (from UniProt Q9JLB9 433-549)	1	
Full-length human nectin-1α expressed on L cells (nectin-1α-L cells) (receptor, UniProt Q15223 31-517, looked up, whole, on cells) QVVQVNDSMYGFIGTDVVLHCSFANPLPSVKITQVTWQKSTNGSKQNVAIYNPSMGVSVLAPYRERVEFLRPSFTDGTIRLSRLELEDEGVYICEFATFPTGNRESQLNLTVMAKPTNWIEGTQAVLRAKKGQDDKVLVATCTSANGKPPSVVSWETRLKGEAEYQEIRNPNGTVTVISRYRLVPSREAHQQSLACIVNYHMDRFKESLTLNVQYEPEVTIEGFDGNWYLQRMDVKLTCKADANPPATEYHWTTLNGSLPKGVEAQNRTLFFKGPINYSLAGTYICEATNPIGTRSGQVEVNITEFPYTPSPPEHGRRAGPVPTAIIGGVAGSILLVLIVVGGIVVALRRRRHTFKGDYSTKKHVYGNGYSKAGIPQHHPPMAQNLQYPDDSDDEKKAGPLGGSSYEEEEEEEEGGGGGERKVGGPHPKYDEDAKRPYFTVDEAEARQDGYGDRTLGYQYDPEQLDLAENMVSQNDGSFISKKEWYV		binds
